Assay [1] concerns the target recombinant Fasciola hepatica helminth defence molecule-1 (FhHDM-1) (Fasciola hepatica). Kind of assay: AUC; sedimentation velocity, 0.1 mg/ml, 20°C, 10 mM Tris, 50 mM NaF, pH 7.3, 40,000 rpm; c(s) and c(M) distributions (SEDFIT).
Assay [2] has the same target. Briefly: AUC; sedimentation velocity, 0.1 mg/ml, 20°C, 10 mM sodium citrate, 50 mM NaF, pH 4.5, 40,000 rpm; c(s) and c(M) distributions (SEDFIT).

Several values for one entry are separate records, joined by “and”; a condition that tells them apart may be missing. Identical values can stand only once.

The text below walks through data of paper PMC3093369.

A word on the stoichiometry N: it is a count of units in the complex or per binding partner.

Consider “recombinant Fasciola hepatica helminth defence molecule-1 (FhHDM-1) (natural protein)”, for which the stoichiometry N was 3 in assay [1]; 2 and 5 in assay [2].
